Source: the RNAGym collection of RNA variant scans (doi:10.1073/pnas.2313332121)
This sample holds only a part of the variants without activity.

B1: TPR 5TU (parent)
chain: GGAUCUUCUCGAUCUAACAAAAAAGACAAAUCUGCCACAAAGCUUGAGAGCAUCUUCGGAUGCAGAGGCGGCAGCCUUCGGUGGCGCGAUAGCGCCAACGUUCUCAACUAUGACACGCAAAACGCGUGCUCCGUUGAAUGGAGUUUAUCAUG

Variants of: B1
Experiment: polymerase ribozyme fitness, log enrichment relative to wild type (log ratio); higher = more active; in vitro selection for triplet polymerase activity
Summary of the method: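 To select mutant libraries of each subunit of a heterodimeric triplet polymerase ribozyme, built by PCR and transcribed, each was annealed with a biotinylated primer, partner subunit and triplets, then incubated frozen at −7 °C. Extended constructs were gel-excised, captured on streptavidin beads and amplified by RT-PCR, in one round carried out in triplicate. Illumina sequencing of input and output libraries kept genotypes with ≥10 input reads and ≥1 read per output. Fitness is the base-2 logarithm of genotype enrichment relative to wild-type enrichment, from inverse-variance-weighted replicate averages.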

Variant | polymerase ribozyme fitness (log ratio)
C85G C125A C131A C149U | ≤ -4.2
A40C C87A | -3.55
G42A C43A U82A A98G | ≤ -4.2
A21U G80U G94A A147U | -0.607
U7G G50C U56G G94C | ≤ -4.2
A22G G70U C118U | -3.77
A40G A49U A60C C76A C96U U134G | ≤ -4.2
U55G G81A G141C U146G | -2.62
A24C G46A G94U C95A A115C | ≤ -4.2
A60G C79G | -3.75
U7G G11A C18A A37G G50A C85U G112U | ≤ -4.2
A21G A60G C63A C93G | -3.23
G50U G83C | -0.813
A22U U56G | -0.902
C27A C79A G84A G86U | ≤ -4.2
A73U C93A | -3.39
C5A A30G C36U G68U G100A | ≤ -4.2
C85A G136C | -4.19
U13C A49C A52U G71A A113U | ≤ -4.2
A40G C93U A106G C118U | -3.47
C51A U55A A60C G74A G81A U90G C95A | ≤ -4.2
C38G A120U G140C A142C | ≤ -4.2
U31A G65U C93G U135C | ≤ -4.2
A37U U77G C96A A106G | ≤ -4.2

Variant | polymerase ribozyme fitness (log ratio)
A3U C8G | ≤ -4.2
G80A C85A | -0.619
A24C A29G C51U C95G C96U C114A U146C | ≤ -4.2
U13A G50A U55A A89C | -3.57
A52G G62A C85U | -1.4
A52C C85U U102C | -2.57
U53A U130G A142C | -0.549
C5A A47U C76G G94C U101G | -4.01
A52U C93A U139G | ≤ -4.2
U15G C18A A23C A60G U104G C123G | ≤ -4.2
A20U C85G C125A U145C | -3.41
G84A U145C | -0.153
A16U A106G U144A | -2.13
C116G A120U | 0.554
A60G G128U | -2.75
C63G G65A G71A C87A C118U U145C | ≤ -4.2
G11A A37C U56G G83A U145G | -3.73
U15G A49C G65C A120C A142C | ≤ -4.2
A37U U56A C99U G143U | -3.88
U102G U148A | -3.81
G92U C96U A97U A115U A121U | -2.82
U78G G141A | ≤ -4.2
G25C A66G A106C | ≤ -4.2
U56A C96U G133A | ≤ -4.2

Variant | polymerase ribozyme fitness (log ratio)
C27U A39G A40C C69A U77C G94U C95A C116U G140U | ≤ -4.2
A22G G124A | 0.539
A12G A49C G74A C96U U102G G112U C125U | ≤ -4.2
U6G A37C C51G G74C A98U C103A C118A G128U U135C U146C G152A | ≤ -4.2
C85G A147C | -1.67
A21U C72U A122U | -0.472
A17C A40U U53A C76G C93U U146G | ≤ -4.2
A16G C54U | -0.601
U33A G46U C75A G140C | ≤ -4.2
G11A A60G A106G | -0.626
A16U A29U U77G C85G C116U C125A U134C | ≤ -4.2
A49C U109G G152U | -4.18
A21U C79G | -3.91
U9C A12G A21U G42U C51G U53A C96A | ≤ -4.2
C96U A97U U134G A138C | ≤ -4.2
G50A C54U C57A G84U C103G G124C G133U G141C | ≤ -4.2
A24C U56A G68A G141A | ≤ -4.2
C51U C93A | -2.34
A47U G92U | -0.338
C8A A49G C76A C93A C103G C105A U127C | ≤ -4.2
U4C A28G C38U C69U C87G G133A | ≤ -4.2
G50U C87U G152U | -4.17
A39U U55G U82C C85U U146C | -2.49
A20G G58A G81C A142C | -1.55

Variant | polymerase ribozyme fitness (log ratio)
G83U A120U A137C | -3.31
C8U C43G A47U A64G G70A C79G C99G U135C G136C U145A | ≤ -4.2
A40C U45A G50A A73U G92A | ≤ -4.2
U45A G84A A115C | -3.88
A12C C38G C85A C116A A120G | -1.83
G11A C32U G71A A137G A138G | ≤ -4.2
C99U G136U | -2.25
C131U U144G | -0.864
C18U C96G U127C G143A | -4.17
C114U G136C | -3.39
C10U C14G C76U A106G A107G C108U | ≤ -4.2
C10A C51U C93U U111G | ≤ -4.2
C72A C85A | -3.85
A24U G58A A66U C87A U90G U146C | ≤ -4.2
C27G G65A | ≤ -4.2
A41C U45G U53A G83C A91U C93U A115G U144A | ≤ -4.2
C36A G46C C79U G88U U151A | ≤ -4.2
G25U G46A C57U C69A G128U A138U | ≤ -4.2
C5A G42C | -4.02
A47U G86A | -1.08
U15G C18G G50C U53G G92A U148G | ≤ -4.2
G68A A122G G133C | ≤ -4.2
A47U G48C | -1.39
G50U C79G A98U C99G | ≤ -4.2

Variant | polymerase ribozyme fitness (log ratio)
U55C C63U C85G A107U A142U U145A | ≤ -4.2
A40U C57G C105A | -0.98
A22C U55G G67A U78A C93G C99A C149G | ≤ -4.2
A30C G59C A60C C93A C99U C114A | ≤ -4.2
A47U C75U | -1.41
C95U C125U A142C | -3.48
C35U A41C U53A C75G C114U G136U | ≤ -4.2
C10U C14U A19C U55A G59U A97U C105A A115U G141U U148C | ≤ -4.2
A29U C99A | -4.17
U6G C57A C85A C95U | -0.326
U15G A40G C96U A97G G141A | -3.18
C93A A121C U148C | -2.37
C5A C96U | 0.321
A89C | -0.82
U15G A16C A30C A47C C85A G133C G143C A150U | ≤ -4.2
C75U G83A C105G G128U U134A A138U G141U | ≤ -4.2
A12G A20U A29U U53G A66C | -4.16
C85U A91C U102C | ≤ -4.2
A3U G59C C85U G126A | -0.686
G58U C72U C87U C99G G141C | ≤ -4.2
G48A U101G | -2.26
C14U U56G G83U C95U C116U | -3.87
G48C G50A U55A | -3.03
G83C U145C | -2.18

Variant | polymerase ribozyme fitness (log ratio)
G126C A150G | -2.81
U13G A28U A64C G68A C79U | ≤ -4.2
C8G G11A A52G A89U C93G | ≤ -4.2
U44C G50U U101G C131U U139C C149U | ≤ -4.2
C18U A21C U55A | -0.649
U7A A17U A19C C38U G58U G86A G92C | ≤ -4.2
U55G G83C U135A | -1.97
C69U G70A C99A G100A | ≤ -4.2
C27U C93U U104A | -3.11
A24U A52G C69G G70C G88A | ≤ -4.2
C18U A37G U56A C87G C103U | ≤ -4.2
U13G U55A G94A G100A G140U | -4.11
C35G U78G C99A | ≤ -4.2
G48A C99U U111A A137G A147C | ≤ -4.2
C85U C87U C108U C114A | ≤ -4.2
U55G G71U | -1.86
U9C A47C A60G G84C C93A C105G A113U U127C | ≤ -4.2
A26C C51G G65A G74C G81U C93G A119U C132U G141C | ≤ -4.2
U56A C57U | 0.273
A22G A39G U61A G88C A121C U146G | ≤ -4.2
A16U U55A A91G G117U | ≤ -4.2
G62U A115C | -1.97
U15C A64C G71A G100A C118U | ≤ -4.2
U55G G81A C118U U135G | -3.84

Variant | polymerase ribozyme fitness (log ratio)
A19C C54U G67U C85A | ≤ -4.2
G48U A73G A122C U146C | -0.965
A19C U53A G92A | -3.8
U6A A24C G48A C93U U127G U144A | ≤ -4.2
G58U C69A G83A | -1.52
C8G A28U C87U C105U | ≤ -4.2
C14A G83A | -0.809
C51U C69G C118G A142C C149G | ≤ -4.2
A12U U55G A60U G83C A137U G141U | ≤ -4.2
C35A A37G U56A U61A | -3.7
U82G A121G | -0.49
A40U C85A | -1.44
A3U G84A G94A A98C G124A | -0.883
C76G G84A C118A G141C | ≤ -4.2
A3G G50C C76A A115U C131G | ≤ -4.2
C123A G140A | -3.65
A24U A30C G140A | -3.94
A29G G48A C75U | ≤ -4.2
G42A G62C C116G C125U A142U A150C | ≤ -4.2
A3G A41U A47G U101G G136U | ≤ -4.2
U45G G59A | -0.523
U15A A24G G25U C32A U56A G59C U82G C103G | ≤ -4.2
U53G A97U | -2.68
